# Test results reported in the RNAGym collection of RNA variant scans (doi:10.7554/elife.80360).
# B1: Hairpin Ribozyme (parent)
# chain: GUCCUCUUUCACGUGCGCGUGAAAGAGAGAAGUGAACCAGAGAAACACACGUUGUGGUAUAUUACCUGGUA
# Variants of: B1
# Assay: self-cleavage, relative activity (ratio to wild type); higher = more cleavage; co-transcriptional
row,Variant,self-cleavage
1,GUCCUCUUUCACGUGCGCGUGAAAGAGAGGAGUGAACCAGAGAAACACACGUUGUGGUAUGUUACCUGGUA [A30G A61G],0.224
2,GUCCUCUUUCACGUGCGCGUGAAAGAGAGGAGUUAACCAGAGAAACACACGUUGUGGUAUAUUACCUGGUA [A30G G34U],0.932
3,GUCCUCUUUCACGUGCGCGUGAAAGAGAGGCGUGAACCAGAGAAACACACGUUGUGGUAUAUUACCUGGUA [A30G A31C],0.111
4,GUCCUCUUUCACGUGCGCGUGAAAGAGAGGUGUGAACCAGAGAAACACACGUUGUGGUAUAUUACCUGGUA [A30G A31U],0.125
5,GUCCUCUUUCACGUGCGCGUGAAAGAGAGCAGUGAACCAGAGAAACACACGUUGUGGUAUAGUACCUGGUA [A30C U62G],0.134
6,GUCCUCUUUCACGUGCGCGUGAAAGAGAGUAGUGAACCAGAGAAACACACGUUGUGGUCUAUUACCUGGUA [A30U A59C],0.153
7,GUCCUCUUUCACGUGCGCGUGAAAGAGAGUGGUGAACCAGAGAAACACACGUUGUGGUAUAUUACCUGGUA [A30U A31G],0.143
8,GUCCUCUUUCACGUGCGCGUGAAAGAGAGGAGUGAACCAGAGAAACCCACGUUGUGGUAUAUUACCUGGUA [A30G A47C],0.152
9,GUCCUCUUUCACGUGCGCGUGAAAGAGAGGAGUGAACCAGAGAAACGCACGUUGUGGUAUAUUACCUGGUA [A30G A47G],0.0575
10,GUCCUCUUUCACGUGCGCGUGAAAGAGAGGAGUGAACCAGAGAAACACACGUUGUGGUAUAUUACCUGGUG [A30G A71G],0.109
11,GUCCUCUUUCACGUGCGCGUGAAAGAGAGUAGUGAACCAGAGAAACACAUGUUGUGGUAUAUUACCUGGUA [A30U C50U],0.0896
12,GUCCUCUUUCACGUGCGCGUGAAAGAGAGUAGUGAACCAGAGAAACACAAGUUGUGGUAUAUUACCUGGUA [A30U C50A],0.221
13,GUCCUCUUUCACGUGCGCGUGAAAGAGAGGAGUGAACCAGAGAAACACACGCUGUGGUAUAUUACCUGGUA [A30G U52C],0.116
14,GUCCUCUUUCACGUGCGCGUGAAAGAGAGGAGUGAACCAGAGAAACACACGAUGUGGUAUAUUACCUGGUA [A30G U52A],0.112
15,GUCCUCUUUCACGUGCGCGUGAAAGAGAGGAGUGAACCAGAGAAACACACGUUGUGGUAUAUUACAUGGUA [A30G C66A],0.192
16,GUCCUCUUUCACGUGCGCGUGAAAGAGAGGAGUGAACCAGAGAAACACACGUUGUGGUAUAUUACGUGGUA [A30G C66G],0.184
17,GUCCUCUUUCACGUGCGCGUGAAAGAGAGGAGUGAACCAGAGAAACACACGUUGUGGUAUACUACCUGGUA [A30G U62C],0.13
18,GUCCUCUUUCACGUGCGCGUGAAAGAGAGGAGUGAACCAGAGAAACACACGUUGUGGUAUAUUACCUGUUA [A30G G69U],0.0631
19,GUCCUCUUUCACGUGCGCGUGAAAGAGAGGAGUGAACCAGAGAAACACACGUUGUGGUAUAUUCCCUGGUA [A30G A64C],0.0804

row,Variant,self-cleavage
1,GUCCUCUUUCACGUGCGCGUGAAAGAGAGGAGUGAACCAGAGAAACACACGUUGUGGUAUAUUGCCUGGUA [A30G A64G],0.141
2,GUCCUCUUUCACGUGCGCGUGAAAGAGAGGAGUGAACCAGAGAAACACACGUUGUGGUAUAUUUCCUGGUA [A30G A64U],0.159
3,GUCCUCUUUCACGUGCGCGUGAAAGAGAGGAGUGAACCUGAGAAACACACGUUGUGGUAUAUUACCUGGUA [A30G A39U],0.138
4,GUCCUCUUUCACGUGCGCGUGAAAGAGAGUAGUGAACCAGAGAAACACACGUUGUGGUAUAUUACUUGGUA [A30U C66U],0.083
5,GUCCUCUUUCACGUGCGCGUGAAAGAGAGGAGUGAACCAGAGAAACACACGUUGUGGUAUAUUAUCUGGUA [A30G C65U],0.125
6,GUCCUCUUUCACGUGCGCGUGAAAGAGAGGAGUGAACCAGAGAAAAACACGUUGUGGUAUAUUACCUGGUA [A30G C46A],0.202
7,GUCCUCUUUCACGUGCGCGUGAAAGAGAGUAGUGAACCAUAGAAACACACGUUGUGGUAUAUUACCUGGUA [A30U G40U],0.129
8,GUCCUCUUUCACGUGCGCGUGAAAGAGAGUAGUGAACCAGAGAAACGCACGUUGUGGUAUAUUACCUGGUA [A30U A47G],0.0659
9,GUCCUCUUUCACGUGCGCGUGAAAGAGAGUAGUAAACCAGAGAAACACACGUUGUGGUAUAUUACCUGGUA [A30U G34A],0.216
10,GUCCUCUUUCACGUGCGCGUGAAAGAGAGGAGUGAACCAGAGAAACACACGUUGAGGUAUAUUACCUGGUA [A30G U55A],0.122
11,GUCCUCUUUCACGUGCGCGUGAAAGAGAGGAGUGAACCAGAGAAACACACGUUGGGGUAUAUUACCUGGUA [A30G U55G],0.232
12,GUCCUCUUUCACGUGCGCGUGAAAGAGAGGAGUGAACCAGAGAAACACACGUUGUGGGAUAUUACCUGGUA [A30G U58G],0.19
13,GUCCUCUUUCACGUGCGCGUGAAAGAGAGGAGUGAACCAGAGAAACACACGUUGUGGAAUAUUACCUGGUA [A30G U58A],0.0366
14,GUCCUCUUUCACGUGCGCGUGAAAGAGAGUAGUGAACCAGAGAAACACACGUUCUGGUAUAUUACCUGGUA [A30U G54C],0.0714
15,GUCCUCUUUCACGUGCGCGUGAAAGAGAGUAGUGAACCAGAGAAUCACACGUUGUGGUAUAUUACCUGGUA [A30U A45U],0.129
16,GUCCUCUUUCACGUGCGCGUGAAAGAGAGUAGUGAACCAGAGAAGCACACGUUGUGGUAUAUUACCUGGUA [A30U A45G],0.236
17,GUCCUCUUUCACGUGCGCGUGAAAGAGAGUAGUGAACCAGAGAAACACACGUUGUGGUAUAUUACCUGGUA [A30U],0.142
18,GUCCUCUUUCACGUGCGCGUGAAAGAGAGGAGUGAACCAGAGAAACACACGUUGUGGUAUAUUACCUGGUA [A30G],0.153
19,GUCCUCUUUCACGUGCGCGUGAAAGAGAGGAGUGAACCAGAGUAACACACGUUGUGGUAUAUUACCUGGUA [A30G A43U],0.221
